We go through 72 sequences from the supplement of paper PMC10567573.

± gives the standard deviation.

This data set can be described thus: protein stability index of a GFP-peptide fusion (GPS, HEK-293T) (PSI 1-6); higher = more stable. The settings on record: c terminus: a fixed tail appended.
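Further: 24-mer peptide tiles fused after GFP, lentivirally expressed, FACS-sorted into six equal bins by GFP/DsRed ratio, decoded by Illumina sequencing, PSI is the read-weighted mean bin number.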

SASSSTTCCESTQRSVSDVASGST [IRX6] gave a protein stability index (treatment: DMSO) of 5.12 ± 0.26 and a protein stability index (treatment: MLN4924 1 uM, 8 h) of 5.26 ± 0.11.
In the same order, the values of SATSKLIHPDEDISLEERRAQLPK [ZNF207] are 4.9 ± 0.28 and 5.08 ± 0.2.
For SCPGSSYRTVVRPTYKVMYKIVTA [EMID1], the protein stability index (treatment: DMSO) worked out at 2.37 ± 0.53 and the protein stability index (treatment: MLN4924 1 uM, 8 h) came out at 2.22 ± 0.26.
Taken in the same sequence, the figures for SDRPFKCNQCGKCFIQSSHLIRHQ [ZNF8] were 3.31 ± 0.17 and 3.76 ± 0.61.
For SECGKAFPRKSELTEHQRIHTGIK [ZNF649], the protein stability index stood at 4.07 ± 0.19 (treatment: DMSO) and 4.2 ± 0.062 (treatment: MLN4924 1 uM, 8 h).
In the same order, the values of SEEELTHIFGDLDSYIPLHEDLLT [NET1] are 3.88 ± 0.19 and 4.03 ± 0.33.
Taken in the same sequence, the figures for SEKSQREDEEEEEGENYQKGERGE [CHGB] were 5.48 ± 0.28 and 5.58 ± 0.28.
For the sequence SELQAYIAQCQDSPTSGKFRRGSG [MCOLN1], the protein stability index reads like this: (treatment: DMSO) 4.21 ± 0.075; (treatment: MLN4924 1 uM, 8 h) 4.31 ± 0.15.
Take SFACQCPEGHVLRSDGKTCAKLDS [MATN2]: the protein stability index runs as follows: (treatment: DMSO) 4.41 ± 0.39; (treatment: MLN4924 1 uM, 8 h) 4.88 ± 0.27.
In the same order, the values of SFHSSGEKQKQPRWREGTKDSHDP [PBXIP1] are 5.08 ± 0.17 and 5.19 ± 0.24.
As for SFNILVEDRVKLFGIEIEVTDIND [PCDHGA10], the protein stability index by setting is: (treatment: DMSO) 2.17 ± 0.4; (treatment: MLN4924 1 uM, 8 h) 2.55 ± 0.59.
In the same order, the values of SFVVARYFPAGNVVNEGFFEENVL [GLIPR2] are 2.11 ± 0.55 and 2.33 ± 0.24.
Taken in the same sequence, the figures for SFWNSSHPRGWNDHVHILDTETFT [KLHDC2] were 2.54 ± 0.17 and 2.39 ± 0.3.
Taken in the same sequence, the figures for SGERWLERYEIDSLIGKGSFGQVV [DYRK1B] were 2.97 ± 0.2 and 3.1 ± 0.25.
Take SGGGRDSSSSILRWLPEKRANPCL [ELOA2]: the protein stability index (treatment: DMSO) was determined as 3.11 ± 0.26 and the protein stability index (treatment: MLN4924 1 uM, 8 h) came to 3.47 ± 0.17.
The sequence SGQRLGGYRTSAVASGLQFDVETR [WDFY2] registered a protein stability index (treatment: DMSO) of 3.82 ± 0.23 and a protein stability index (treatment: MLN4924 1 uM, 8 h) of 3.74 ± 0.27.
Regarding SGRDRVGRQERGLPPSMERGYPPP [RBMX], the protein stability index came out at 4 ± 0.38 (treatment: DMSO) and 3.94 ± 0.19 (treatment: MLN4924 1 uM, 8 h).
In the same order, the values of SGRNGEVSLDISPDLPFQIKPSEN [PCDHGC5] are 4.47 ± 0.25 and 4.56 ± 0.26.
With SHKRKRSSGSFCYCHPDSETDEDE [GMCL1], the protein stability index (treatment: DMSO) was found to be 5.21 ± 0.4 and the protein stability index (treatment: MLN4924 1 uM, 8 h) turned out to be 5.34 ± 0.2.
Taken in the same sequence, the figures for SHLQWQESRLKRSNPLAREIFRRH [ZSCAN9] were 3.18 ± 0.29 and 3.35 ± 0.27.
In the same order, the values of SHRPNQHNTVKLGAFQAQEKELVF [PRIM1] are 3.06 ± 0.62 and 3.25 ± 0.37.
For SIALRNISLAKGPPGPKGDQGDEG [SCARA5], the protein stability index turned out to be 4.68 ± 0.09 (treatment: DMSO) and 4.86 ± 0.2 (treatment: MLN4924 1 uM, 8 h).
Taken in the same sequence, the figures for SIQSLTLEWNSLGTWDDAFATFCG [LRRC45] were 2.25 ± 0.25 and 2.08 ± 0.53.
SKCKIIHTDIKPENILMCVDDAYV [SRPK2] displayed a protein stability index (treatment: DMSO) of 2.39 ± 0.33 and a protein stability index (treatment: MLN4924 1 uM, 8 h) of 2.5 ± 0.17.
Take SKDWVFLNYTYKRFEGLTQRGSIP [STK38L]: the protein stability index (treatment: DMSO) turned out to be 2.54 ± 0.78 and the protein stability index (treatment: MLN4924 1 uM, 8 h) was determined as 2.48 ± 1.
Sequence SKMDQLAKELTAEKRLEGQEEEED [CHGA] registered a protein stability index (treatment: DMSO) of 5.54 ± 0.34 and a protein stability index (treatment: MLN4924 1 uM, 8 h) of 5.42 ± 0.36.
Taken in the same sequence, the figures for SKNEVGIFTTPNFDETSSATTIST [KMT2E] were 4.76 ± 0.22 and 4.79 ± 0.17.
As for SLADGGSASPIKDQPVMAVKTGED [FANCE], the protein stability index reads like this: (treatment: DMSO) 5.46 ± 0.23; (treatment: MLN4924 1 uM, 8 h) 5.6 ± 0.16.
In the same order, the values of SLGQDLRRLRQELLKTEALKRQAQ [DAPK3] are 3.09 ± 0.59 and 2.96 ± 0.14.
Taken in the same sequence, the figures for SLQNSLECAMETTEEQTRQERQGP [NECAB1] were 5.09 ± 0.17 and 5.22 ± 0.25.
Taken in the same sequence, the figures for SMGFSARYNFTPDPDFKDLGALKP [NETO1] were 3.02 ± 0.33 and 3.26 ± 0.17.
Consider SNFDDFPESDILQPVPNTTEPDYK [STK38L], for which the protein stability index reads like this: (treatment: DMSO) 5.59 ± 0.25; (treatment: MLN4924 1 uM, 8 h) 5.24 ± 0.29.
In the same order, the values of SNNITLREDQLDTVLAVLEDSSRD [INTS4] are 5.25 ± 0.18 and 5.28 ± 0.16.
For the sequence SNVQEVRCPVTVCGDVHGQFHDLM [PPP2CA], the protein stability index came to 3.54 ± 0.41 (treatment: DMSO) and 3.49 ± 0.31 (treatment: MLN4924 1 uM, 8 h).
Taken in the same sequence, the figures for SPRRSLYKLVGSPPWKEAFRQRCL [RPAIN] were 2.27 ± 0.26 and 2.4 ± 0.23.
Taken in the same sequence, the figures for SPRRVGFVGAGRMAGAIAQGLIRA [PYCR3] were 2.66 ± 0.15 and 2.78 ± 0.14.
In the same order, the values of SPSTRGSPNRSLPSPGVLCGSARP [ATF4] are 4.49 ± 0.46 and 4.88 ± 0.18.
In the case of SPWNFLGDELYEQSDEEQDSVKVA [CLPTM1], the protein stability index reads like this: (treatment: DMSO) 5.32 ± 0.21; (treatment: MLN4924 1 uM, 8 h) 5.36 ± 0.4.
For the sequence SQGLAREQHAGTSEGLHLAGTAGH [FBF1], the protein stability index by setting is: (treatment: DMSO) 4.76 ± 0.16; (treatment: MLN4924 1 uM, 8 h) 4.84 ± 0.36.
For the sequence SQIRLNREHKETCEMDWSDKMEAY [TEKT4], the protein stability index reads like this: (treatment: DMSO) 4.47 ± 0.11; (treatment: MLN4924 1 uM, 8 h) 4.58 ± 0.28.
As for SQSHCYRTCFSPASDGSDFTFLRP [PCDHGC5], the protein stability index by setting is: (treatment: DMSO) 2.15 ± 0.26; (treatment: MLN4924 1 uM, 8 h) 2.09 ± 0.16.
As for SRAEPIRTTVFQYPVGWPPVQELP [ZMAT5], the protein stability index runs as follows: (treatment: DMSO) 2.38 ± 0.41; (treatment: MLN4924 1 uM, 8 h) 2.82 ± 0.34.
With SRAPQLHLEYRFYKQLGSAGEGLP [CSNK1G1], the protein stability index was 2.73 ± 0.44 (treatment: DMSO) and 2.84 ± 0.19 (treatment: MLN4924 1 uM, 8 h).
Consider SRKSSIPNNKEIPSHHPTDPVELR [PTPRD], for which the protein stability index (treatment: DMSO) was determined as 4.83 ± 0.1 and the protein stability index (treatment: MLN4924 1 uM, 8 h) was found to be 5.04 ± 0.35.
Taken in the same sequence, the figures for SRREIRKIMGVEEEDDDDDDDDNL [ANKRD40] were 5.44 ± 0.12 and 5.53 ± 0.16.
In the case of SRVAGFNPALQLILTRTDKTLNKK [TOR1AIP2], the protein stability index by setting is: (treatment: DMSO) 4.25 ± 0.3; (treatment: MLN4924 1 uM, 8 h) 4.33 ± 0.18.
Taken in the same sequence, the figures for SRVTDAAFNFLLVWYYCTLTIRES [TMEM120A] were 3 ± 0.1 and 2.62 ± 0.45.
As to SRYRSLRPNRQLGSMVEIAKQLQA [TRIM39], the protein stability index came to 2.74 ± 0.28 (treatment: DMSO) and 2.92 ± 0.34 (treatment: MLN4924 1 uM, 8 h).
Take SSEHVTESVADLLALEEPVDYKQS [SLC6A17]: the protein stability index (treatment: DMSO) stood at 5.17 ± 0.26 and the protein stability index (treatment: MLN4924 1 uM, 8 h) stood at 5.25 ± 0.34.
In the same order, the values of SSETPPPPPPPNEINPPPHTMEEE [EIF5] are 5.52 ± 0.31 and 5.46 ± 0.3.
Taken in the same sequence, the figures for SSFSDPFFVVETLCIIWFSFELLV [KCNA3] were 3.06 ± 0.48 and 3.2 ± 0.32.
Taken in the same sequence, the figures for SSMLTGILWDTLLRLCAWGLASWP [POMT2] were 3.12 ± 0.62 and 2.66 ± 0.61.
SSPVTTLTQTMHDLAGLGSETPKS [CDC25B] came in with a protein stability index (treatment: DMSO) of 4.97 ± 0.31 and a protein stability index (treatment: MLN4924 1 uM, 8 h) of 5.13 ± 0.14.
In the same order, the values of SSSDLVMRARDSVYHIECFRCSVC [ISL2] are 2.5 ± 0.33 and 2.72 ± 0.51.
Consider SSSSSSSSSSSSSSSSGPGHGEPD [TMEM40], for which the protein stability index by setting is: (treatment: DMSO) 5.49 ± 0.36; (treatment: MLN4924 1 uM, 8 h) 5.4 ± 0.35.
As to SSYSSCYSFGSGGGYGSSFGGVDG [KRT17], the protein stability index (treatment: DMSO) stood at 2.69 ± 0.38 and the protein stability index (treatment: MLN4924 1 uM, 8 h) amounted to 2.53 ± 0.2.
With STFASLIGPFGGFFASGFKRAFKI [CDS2], the protein stability index came to 2.21 ± 0.44 (treatment: DMSO) and 2.37 ± 0.38 (treatment: MLN4924 1 uM, 8 h).
For STRQTQSWTAVTPQQTWASPAEVV [C18orf25], the protein stability index turned out to be 3.63 ± 0.078 (treatment: DMSO) and 3.98 ± 0.24 (treatment: MLN4924 1 uM, 8 h).
For STSQGCAQPQGAPCCSSSPEEPLN [FEM1A], the protein stability index reads like this: (treatment: DMSO) 5.37 ± 0.23; (treatment: MLN4924 1 uM, 8 h) 5.32 ± 0.15.
In the case of STWALYGRAVDQDKVLRFAQQIRL [MYORG], the protein stability index is, setting by setting: (treatment: DMSO) 2.29 ± 0.23; (treatment: MLN4924 1 uM, 8 h) 2.25 ± 0.33.
Taken in the same sequence, the figures for SVLNGKFANLIKEFVIIDCRYPYE [CDC25A] were 2.63 ± 0.36 and 2.55 ± 1.
Take SVNWRTGSFHGPGHISLRRENSSD [DLC1]: the protein stability index was found to be 3.78 ± 0.21 (treatment: DMSO) and 3.86 ± 0.2 (treatment: MLN4924 1 uM, 8 h).
Regarding SVREVTQIKCIELKSELGRKWHKA [P2RY14], the protein stability index worked out at 2.83 ± 0.24 (treatment: DMSO) and 3.23 ± 0.29 (treatment: MLN4924 1 uM, 8 h).
Taken in the same sequence, the figures for SWWADLRALARNLIFGLITCLTGV [SPNS1] were 3.88 ± 0.43 and 3.92 ± 0.24.
SWYHWKGFEFSVPFTEMKLRPRNF [TNXB]: the protein stability index stood at 2.47 ± 0.81 (treatment: DMSO) and 3.15 ± 0.53 (treatment: MLN4924 1 uM, 8 h).
Taken in the same sequence, the figures for TCSRVDYCLLSDHGCEYSCVNMDR [MATN2] were 2.84 ± 0.24 and 2.82 ± 0.32.
The sequence TCVAVGSPMPYVKWMLGAEDLTPE [PTPRD] came in with a protein stability index (treatment: DMSO) of 2.97 ± 0.33 and a protein stability index (treatment: MLN4924 1 uM, 8 h) of 3.14 ± 0.38.
As for TDANLPSGGKGFKLRRQPSEPKRS [RAB22A], the protein stability index reads like this: (treatment: DMSO) 4.88 ± 0.41; (treatment: MLN4924 1 uM, 8 h) 5.08 ± 0.17.
Taken in the same sequence, the figures for TDGGGWLVFQRRMDGQTDFWRDWE [TNXB] were 2.33 ± 0.53 and 2.25 ± 0.65.
In the same order, the values of TDGMILGPEDLSYQIYDVSGESNS [LARP4] are 4.71 ± 0.22 and 4.58 ± 0.37.
With TEDSPLGTVVALLNVHDLDSEQNG [PCDHGA10], the protein stability index by setting is: (treatment: DMSO) 4.86 ± 0.18; (treatment: MLN4924 1 uM, 8 h) 4.94 ± 0.27.
Taken in the same sequence, the figures for TEKLKANAESSKTWLKGKFTELRL [TRIM14] were 2.53 ± 0.43 and 2.48 ± 0.42.
